B1: positive control scFv DLX105 (scFv)
scFv: MADIVMTQSPSSLSASVGDRVTLTCTASQSVSNDVVWYQQRPGKAPKLLIYSAFNRYTGVPSRFSGRGYGTDFTLTISSLQPEDVAVYYCQQDYNSPRTFGQGTKLEVKRGGGGSGGGGSGGGGSSGGGSQVQLVQSGAEVKKPGASVKVSCTASGYTFTHYGMNWVRQAPGKGLEWMGWINTYTGEPTYADKFKDRFTFSLETSASTVYMELTSLTSDDTAVYYCARERGDAMDYWGQGTLVTVSS
B2: scFv1 (scFv)
scFv: EIVMTQSPSTLSASVGDRVIITCQASQSISSYLAWYQQKPGKAPKLLIYWASTLASGVPSRFSGSGSGTEFTLTISSLQPDDFATYYCQSYYYTSNNSDGFWAFGQGTKLTVLGGGGGSGGGGSGGGGSGGGGSEVQLVESGGGLVQPGGSLRLSCKASGIDFSNSGITWVRQAPGKGLEWVGYIYPGFGIRNYANSVRGRFTISRDTSKNTVYLQMNSLRAEDTAVYYCARDPIYASSSGYADIWGQGTLVTVSS

How the values were obtained:
[1] = molecular target: transmembrane (tm) human TNF alpha, A1-12 variant, on CHO cells (human, UniProt P01375 1-233); experiment: cell-based or functional assay
[2] = molecular target: recombinant human (rh) TNF alpha (human, UniProt P01375 77-233, limits assumed); experiment: cell-based or functional assay
[3] = molecular target: T1, recombinant human lymphotoxin α2/β1 (R&D systems, cat. No 679-TX-010/CF) (human, UniProt P01374 35-205; Q06643 49-244, limits assumed); experiment: direct ELISA, protein coated
T1 construct: Bought heterotrimer; also called human lymphotoxin alpha2/beta1
T1 sequence (looked up) 1: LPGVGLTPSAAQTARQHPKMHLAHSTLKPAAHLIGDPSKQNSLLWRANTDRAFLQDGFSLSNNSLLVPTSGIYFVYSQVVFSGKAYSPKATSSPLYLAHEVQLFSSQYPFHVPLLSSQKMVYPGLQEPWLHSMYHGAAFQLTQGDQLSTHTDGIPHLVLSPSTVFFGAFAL
T1 sequence (looked up) 2: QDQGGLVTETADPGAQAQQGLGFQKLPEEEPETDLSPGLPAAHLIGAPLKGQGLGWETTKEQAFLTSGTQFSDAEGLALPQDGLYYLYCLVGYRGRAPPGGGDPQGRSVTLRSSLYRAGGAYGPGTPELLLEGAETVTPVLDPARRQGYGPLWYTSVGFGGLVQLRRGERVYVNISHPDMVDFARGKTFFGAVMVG
Protocol: (§1) The cross-reactivity profile of the five selected scFvs to TNF alpha homologs of other species than human beings was assessed using ELISA. The following recombinantly expressed TNF alpha proteins were investigated: rhesus macaque (R&D Systems, USA, cat. no. 1070-RM-025/CF), cynomolgus monkey (Sinobiological, cat.no. 90018 CNAE), canine (Kingfisher Biotech, USA, cat. no. RP0261D-025) and feline (R&D systems, cat. No, 2586FTCF), rabbit (Kingfisher, cat. no RPO429U), rat (Peprotech, cat. no 400-14) murine (Peprotech, cat. no 315-01A), guinea pig (R&D Systems, cat. no 5035-TG-025/CF), porcine (R&D Systems, cat. no 690-PT-025/CF). Briefly, proteins were coated at a concentration of 2 mcg/mL over night at 4° C. on Maxisorp 96-well microplates in PBS pH 7.2. After blocking with 5% non-fat dry milk, increasing concentrations of scFv (0.1, 0.3 and 1.0 mcg/mL) were added to the wells. Successful coating of every protein was separately confirmed with TNF alpha-specific control antibodies. Whereas scFv1 was detected by Protein L-HRP (Sigma-Aldrich, USA, cat. no. P3226), the full-length IgG control antibodies were detected by either Streptavidin-HRP (BD Pharmingen, USA, cat. no. 554060) or other eligible secondary antibodies labelled with HRP. The ELISA was developed with BM Blue POD substrate (Roche Applied Science) and the absorbance was measured at 450 nm. The cross-reactivity of scFvs 1-5 was compared to the scFv DLX2481. […] The scFv DLX2481 recognized only recombinant human TNF alpha. In addition, the cross-reactivity of scFv1 to TNF family members was measured by a direct ELISA with coated recombinant human lymphotoxin α2/β1 (R&D systems, USA, cat. No 679-TX-010/CF), recombinant human lymphotoxin α2/β1 (R&D systems, cat. No 678-LY-010/CF), recombinant human CD40 ligand/TNFSF5 (R&D systems, cat. No. 6420-CL-025/CF) and recombinant human TNF beta/TNFSF1 (R&D systems, cat.

[4] = molecular target: T2, recombinant human lymphotoxin α2/β1 (R&D systems, cat. No 678-LY-010/CF) (human, UniProt P01374 35-205; Q06643 49-244, limits assumed); experiment: direct ELISA, protein coated
T2 construct: This second one is probably α1/β2, so copy numbers are left open; also called second lymphotoxin preparation
T2 sequence (looked up) 1: T1 sequence (looked up) 1
T2 sequence (looked up) 2: T1 sequence (looked up) 2
Protocol: as §1

[5] = molecular target: T3, recombinant human CD40 ligand/TNFSF5 (human, UniProt P29965 108-261, limits assumed); experiment: direct ELISA, protein coated
T3 construct: Bought protein; also called R&D systems cat; No. 6420-CL-025/CF
T3 sequence (looked up): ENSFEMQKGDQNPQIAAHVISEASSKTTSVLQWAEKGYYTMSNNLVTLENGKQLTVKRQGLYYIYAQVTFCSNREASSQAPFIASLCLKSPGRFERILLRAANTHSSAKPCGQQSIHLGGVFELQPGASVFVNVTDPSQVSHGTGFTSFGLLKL
Protocol: as §1

[6] = molecular target: T4, recombinant human TNF beta/TNFSF1 (human, UniProt P01374 35-205, limits assumed); experiment: direct ELISA, protein coated
T4 construct: Bought protein; also called R&D systems cat; No. 211-TB-010/CF
T4 sequence (looked up): T1 sequence (looked up) 1
Protocol: as §1

rhesus macaque TNF alpha = molecular target: T5, rhesus macaque TNF alpha (rhesus macaque, UniProt P48094 77-233); experiment: ELISA, TNF alpha protein coated, Protein L-HRP detection
T5 construct: Bought protein; also called R&D Systems cat. no; 1070-RM-025/CF
Protocol: as §1

[7] = molecular target: T6, cynomolgus monkey TNF alpha (cynomolgus monkey, UniProt P79337 77-233); experiment: as above
T6 construct: Bought protein; also called Sinobiological cat. no; 90018 CNAE
Protocol: as §1

canine TNF alpha = molecular target: T7, canine TNF alpha (canine, UniProt P51742 77-233); experiment: as above
T7 construct: Bought protein; also called dog TNF alpha; Kingfisher Biotech cat. no; RP0261D-025
Protocol: as §1

feline TNF alpha = molecular target: T8, feline TNF alpha (feline, UniProt P19101 77-233); experiment: as above
T8 construct: Bought protein; also called R&D systems cat; No 2586FTCF
Protocol: as §1

recombinant human (rh) TNF alpha, sequence (P01375 77-233 limits assumed): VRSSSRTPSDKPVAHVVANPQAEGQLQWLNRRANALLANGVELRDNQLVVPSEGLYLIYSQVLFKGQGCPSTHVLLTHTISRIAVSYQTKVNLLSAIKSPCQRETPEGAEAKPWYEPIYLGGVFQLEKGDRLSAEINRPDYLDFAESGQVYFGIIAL
transmembrane (tm) human TNF alpha, A1-12 variant, on CHO cells, sequence (P01375 other isoform, or with tags, fused parts or gaps mutant limits assumed): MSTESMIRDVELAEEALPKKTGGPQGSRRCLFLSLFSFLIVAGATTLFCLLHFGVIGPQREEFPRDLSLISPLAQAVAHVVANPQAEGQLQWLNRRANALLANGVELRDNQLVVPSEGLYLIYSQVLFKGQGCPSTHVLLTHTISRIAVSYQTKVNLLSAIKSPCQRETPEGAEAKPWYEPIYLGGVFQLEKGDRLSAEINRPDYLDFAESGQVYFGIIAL
T8 sequence (P19101 77-233 limits assumed): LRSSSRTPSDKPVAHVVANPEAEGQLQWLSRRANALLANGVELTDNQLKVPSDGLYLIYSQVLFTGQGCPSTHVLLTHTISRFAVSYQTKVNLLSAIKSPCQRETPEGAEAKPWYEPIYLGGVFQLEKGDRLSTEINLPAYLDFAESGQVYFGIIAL
T5 sequence (P48094 77-233 limits assumed): as the sequence (P01375 77-233 limits assumed) above, with R44T, T72N, R138L counted along it
T6 sequence (P79337 77-233 limits assumed): as the sequence (P01375 77-233 limits assumed) above, with L37V, R44T, T72N, R138L counted along it
T7 sequence (P51742 77-233 limits assumed): as the sequence (P19101 77-233 limits assumed) above, with L1V, R2K, K49I, T65K, A109T, T134A, A140N counted along it

Binder	IC50, inhibition of tmTNF alpha activity on HEK-Dual TNF alpha-sensitive reporter cells (luciferase) [1]	IC50, inhibition of rhTNF alpha (1.4 pM) cytotoxicity on PK-15 cells [2]	binding result [3]	binding result [4]	binding result [5]	binding result [6]	binding result (rhesus macaque TNF alpha)	binding result [7]	binding result (canine TNF alpha)	binding result (feline TNF alpha)
B1	32 nM	260 pM	–	–	–	–	–	–	–	–
B2	50 nM	30 pM	no binding (tested: 40 nM)	no binding (tested: 40 nM)	no binding (tested: 40 nM)	no binding (tested: 40 nM)	binds	binds	binds	binds

Reference: patent US20170107282A1 (CELL MEDICA SWITZERLAND, published 2017)
